Target: the molecule itself
Experiment: SEC-MALS; NOMO1-FLAG on a Superose 6 column, RT, 50 mM MES pH 6.0, 150 mM KCl, 5 mM MgCl2, 5 mM CaCl2, 2% glycerol, 0.05% DDM; protein conjugate analysis to correct for detergent

B1: NOMO1-FLAG (nodal modulator 1, full length, C-terminal FLAG tag) (natural protein, human, UniProt Q15155 32-1222, looked up)
chain: SEDIVVGCGGFVKSDVEINYSLIEIKLYTKHGTLKYQTDCAPNNGYFMIPLYDKGDFILKIEPPLGWSFEPTTVELHVDGVSDICTKGGDINFVFTGFSVNGKVLSKGQPLGPAGVQVSLRNTGTEAKIQSTVTQPGGKFAFFKVLPGDYEILATHPTWALKEASTTVRVTNSNANAASPLIVAGYNVSGSVRSDGEPMKGVKFLLFSSLVTKEDVLGCNVSPVPGFQPQDESLVYLCYTVSREDGSFSFYSLPSGGYTVIPFYRGERITFDVAPSRLDFTVEHDSLKIEPVFHVMGFSVTGRVLNGPEGDGVPEAVVTLNNQIKVKTKADGSFRLENITTGTYTIHAQKEHLYFETVTIKIAPNTPQLADIIATGFSVCGQISIIRFPDTVKQMNKYKVVLSSQDKDKSLVTVETDAHGSFCFKAKPGTYKVQVMVPEAETRAGLTLKPQTFPLTVTNRPMMDVAFVQFLASVSGKVSCLDTCGDLLVTLQSLSRQGEKRSLQLSGKVNAMTFTFDNVLPGKYKISIMHEDWCWKNKSLEVEVLEDDMSAVEFRQTGYMLRCSLSHAITLEFYQDGNGRENVGIYNLSKGVNRFCLSKPGVYKVTPRSCHRFEQAFYTYDTSSPSILTLTAIRHHVLGTITTDKMMDVTVTIKSSIDSEPALVLGPLKSVQELRREQQLAEIEARRQEREKNGNEEGEERMTKPPVQEMVDELQGPFSYDFSYWARSGEKITVTPSSKELLFYPPSMEAVVSGESCPGKLIEIHGKAGLFLEGQIHPELEGVEIVISEKGASSPLITVFTDDKGAYSVGPLHSDLEYTVTSQKEGYVLTAVEGTIGDFKAYALAGVSFEIKAEDDQPLPGVLLSLSGGLFRSNLLTQDNGILTFSNLSPGQYYFKPMMKEFRFEPSSQMIEVQEGQNLKITITGYRTAYSCYGTVSSLNGEPEQGVAMEAVGQNDCSIYGEDTVTDEEGKFRLRGLLPGCVYHVQLKAEGNDHIERALPHHRVIEVGNNDIDDVNIIVFRQINQFDLSGNVITSSEYLPTLWVKLYKSENLDNPIQTVSLGQSLFFHFPPLLRDGENYVVLLDSTLPRSQYDYILPQVSFTAVGYHKHITLIFNPTRKLPEQDIAQGSYIALPLTLLVLLAGYNHDKLIPLLLQLTSRLQGVRALGQAASDNSGPEDAKRQAKKQKTRRT
notes: Nodal modulator 1 (NOMO1), human, type I transmembrane glycoprotein: luminal domain (1124 residues), TM domain, 40-residue cytosolic tail; cloned from a Dharmacon plasmid into pcDNA3.1+; 135 kDa with the tag; Membrane protein kept in dodecyl maltoside (0.05% DDM); also called full-length NOMO1-FLAG; full-length NOMO; source: Expi293F, transfected, purified in DDM (anti-FLAG M2 beads, FLAG peptide …)
stoichiometry N: 2

Source: publication PMC8327139, “Nodal modulator (NOMO) is required to sustain endoplasmic reticulum morphology” (The Journal of Biological Chemistry, 2021)
